Data taken from the supplement of paper PMC9732359.
± gives the uncertainty stated by the source.

Assay: protein stability index of a GFP-peptide fusion (yeast GPS) (PSI 1-4); higher = more stable; sorted into four equal gates, so the index is relative within each strain
Outline: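 For each peptide, the protein stability index sums the read frequency in every gate after multiplying it by the gate number. Read frequencies came from plasmids that were PCR-amplified from each gate and Illumina-sequenced, with reads assigned to strains by barcodes. The gates were four equal bins of GFP/Cherry fluorescence ratio applied to mid-log yeast in leucine-free medium carrying a pooled library of tiled 17-residue yeast protein peptides fused downstream of GFP on a Cherry-expressing plasmid.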

| Sequence | protein stability index (doa10∆) | protein stability index (pdr5∆) | protein stability index (san1∆) | protein stability index (ubr1∆) |
| --- | --- | --- | --- | --- |
| PYFDYIFNDILAHVDQI [YJL039C/NUP192] | 1.9 ± 0.11 | 1.89 ± 0.077 | 2.39 ± 0.099 | 1.94 ± 0.054 |
| SPFLMGHPMTKSVYETP [SEC65] | 2.28 ± 0.067 | 2.55 ± 0.068 | 2.83 ± 0.083 | 2.68 ± 0.052 |
| HIEGVVILKKNPDYREE [RPN1] | 2.89 ± 0.086 | 3.07 ± 0.096 | 3.05 ± 0.079 | 3.07 ± 0.066 |
| VFYRGMTMQVAVPRDEL [FAS1] | 1.62 ± 0.056 | 1.86 ± 0.066 | 2 ± 0.072 | 1.97 ± 0.12 |
| GPAAAIEFEYDPWNKLK [RPB3] | 3.04 ± 0.081 | 3.08 ± 0.078 | 3.05 ± 0.052 | 3.25 ± 0.065 |
| RVKVHFDQAGKKVSRRN [RPL13A] | 3.46 ± 0.12 | 3.37 ± 0.1 | 3.26 ± 0.12 | 3.31 ± 0.079 |
| QDSILIIYPRSQTTLVQ [ARP9] | 2.6 ± 0.16 | 1.81 ± 0.064 | 2.23 ± 0.079 | 2.46 ± 0.067 |
| DKLTRVHDKIWCCRSGS [PRE3] | 2.78 ± 0.061 | 2.68 ± 0.068 | 2.67 ± 0.056 | 2.9 ± 0.032 |
| RLGGDDLRIRIKLDIVV [SNF5] | 1.35 ± 0.16 | 1.33 ± 0.097 | 1.54 ± 0.13 | 1.29 ± 0.099 |
| LQAFGESESTTNVYSKD [RPB3] | 2.08 ± 0.081 | 2.1 ± 0.06 | 1.68 ± 0.076 | 1.72 ± 0.041 |
| VPHSHPSDMVIPDHLAE [SNF12] | 2.04 ± 0.047 | 2.39 ± 0.047 | 2.22 ± 0.068 | 2.31 ± 0.03 |
| EGDGAKAAISFGAKPEE [YJL041W/NSP1] | 3.21 ± 0.1 | 3 ± 0.087 | 3.43 ± 0.082 | 3.43 ± 0.053 |
| IKDLQRAINKVLCTRLR [SIR2] | 1.78 ± 0.063 | 1.33 ± 0.06 | 1.18 ± 0.11 | 1.54 ± 0.045 |
| ERSKQLNEKFQELRKKV [SMC2] | – | 2.78 ± 0.24 | 3.33 ± 0.097 | 2.81 ± 0.15 |
| LSTRELAGKVGSIRVHK [RPC53] | 1.61 ± 0.18 | 1.26 ± 0.11 | – | – |
| DESLIRELYKYVRKHDP [PRP28] | 3.4 ± 0.14 | 3.48 ± 0.16 | 2.83 ± 0.17 | 3.09 ± 0.12 |
| DELERILKELSNLETLY [RPB4] | 3.21 ± 0.092 | 3.33 ± 0.082 | 3.21 ± 0.072 | 3.1 ± 0.12 |
| RITNSFYSTNSQYFKFK [RPN9] | 2.5 ± 0.1 | 2.38 ± 0.076 | 2.42 ± 0.086 | 2.83 ± 0.16 |
| PSRKDCMEVASAFMKFS [BRR2] | 2.4 ± 0.054 | 2.78 ± 0.047 | 2.83 ± 0.06 | 2.68 ± 0.055 |
| DSTVNKSITLKGRNNES [YDL088C/ASM4] | 3.28 ± 0.09 | 3.38 ± 0.084 | 3.23 ± 0.058 | 3.21 ± 0.079 |
| SPDSTVNRSVVVSAVGE [YAR002W/NUP60] | 3.11 ± 0.084 | 2.91 ± 0.088 | 3.28 ± 0.063 | 2.79 ± 0.061 |
| VSNENKKNIDYQNRSTR [RRI1] | 3.13 ± 0.065 | 3.04 ± 0.067 | 3.2 ± 0.062 | 3.25 ± 0.055 |
| RDEIAKNTELSYDFLPL [RPN12] | 1.54 ± 0.062 | 2.23 ± 0.072 | 1.82 ± 0.079 | 2.32 ± 0.05 |
| RNTMMIQCQIDKLYIHF [RGR1] | 1.98 ± 0.051 | 2.15 ± 0.061 | 2.08 ± 0.069 | 2.19 ± 0.041 |
| ITKFALFAESHDVLQKL [YML103C/NUP188] | 2.34 ± 0.1 | 1.78 ± 0.2 | 2.02 ± 0.13 | 2.45 ± 0.075 |
| MKMDKSPTESYSDIGGL [RPT2] | 3.21 ± 0.096 | 3.4 ± 0.096 | 3.38 ± 0.055 | 3.05 ± 0.059 |
| LKPKLYYEQFRPDLIKE [SIR3] | 3.06 ± 0.073 | 3.15 ± 0.06 | 3.25 ± 0.05 | 3.33 ± 0.045 |

| Sequence | protein stability index (doa10∆) | protein stability index (pdr5∆) | protein stability index (san1∆) | protein stability index (ubr1∆) |
| --- | --- | --- | --- | --- |
| TRKAMLDPLEVHMLDFP [PRP8] | 2.84 ± 0.061 | 2.94 ± 0.06 | 3.03 ± 0.054 | 3 ± 0.048 |
| LALETVLIKMVKMLRDN [SIR3] | 2.26 ± 0.11 | 2.06 ± 0.074 | 2.08 ± 0.079 | 1.77 ± 0.092 |
| GLRVRGQHTKTTGRRRA [RPS18A] | 2.09 ± 0.052 | 2.33 ± 0.066 | 2.21 ± 0.068 | 2.54 ± 0.037 |
| LPKLNLPKYQTIQYDPP [SNF5] | 2.53 ± 0.22 | 2.6 ± 0.11 | 2.31 ± 0.16 | 2.11 ± 0.084 |
| QVMEEKLDENNAQLSCI [PUP2] | 3.31 ± 0.086 | 2.69 ± 0.27 | 2.86 ± 0.19 | 3.17 ± 0.17 |
| PNISHSNIDYQTLLANS [SNF2] | 3.33 ± 0.17 | 2.7 ± 0.18 | 2.58 ± 0.22 | 2.82 ± 0.11 |
| QKNFMDQFQWILRKPGK [RRI2] | 2.42 ± 0.14 | 2.66 ± 0.12 | 2.67 ± 0.15 | 2.49 ± 0.091 |
| EQTVEYMVSRAIRDGVI [RPN3] | 3.47 ± 0.15 | 3.58 ± 0.1 | 2.64 ± 0.17 | 3.45 ± 0.049 |
| NNTEKNDVTNKNINIGK [SIR4] | 2.1 ± 0.055 | 2.21 ± 0.052 | 2.9 ± 0.043 | 2.37 ± 0.044 |
| LLISYGVSIENENKVII [SRB4] | 2.1 ± 0.096 | 2.36 ± 0.14 | 3.13 ± 0.092 | 2.93 ± 0.12 |
| AKTLTYPEVVTPYNIDR [RPO21] | 2.17 ± 0.074 | 2.35 ± 0.078 | 1.94 ± 0.073 | 2.05 ± 0.074 |
| EVESSDTIDNVKSKIQD [RPS31] | 3.11 ± 0.21 | 2.78 ± 0.17 | 3.12 ± 0.1 | – |
| GQSAGKLAAIVEIIDQK [RPL14A] | 3.28 ± 0.098 | 3.29 ± 0.11 | 2.82 ± 0.11 | 3.41 ± 0.066 |
| RPDLIKEDHPLEFYKDK [SIR3] | 3.17 ± 0.07 | 3.23 ± 0.055 | 3.21 ± 0.039 | 3.08 ± 0.074 |
| LFAREIAKSQDKKSCSV [DPB4] | 3.33 ± 0.064 | 3.24 ± 0.073 | 3.14 ± 0.067 | 3.22 ± 0.04 |
| ELEKYNELERNRKIYQF [SMC3] | 2.34 ± 0.099 | 2.35 ± 0.13 | 2.38 ± 0.14 | 2.67 ± 0.078 |
| NKLSGILADEMGLGKTL [ISW2] | 3.1 ± 0.088 | 3.23 ± 0.13 | 3.15 ± 0.049 | 2.68 ± 0.096 |
| FPNIAIRPTELRLPFSA [PRP8] | 2.11 ± 0.084 | 1.85 ± 0.086 | 1.93 ± 0.09 | 2.23 ± 0.076 |
| KEYQCSAVIIDEFKDIT [YIL149C/MLP2] | 2.46 ± 0.065 | 2.75 ± 0.065 | 2.35 ± 0.055 | 2.88 ± 0.044 |
| KKECALLISYGVSIENE [SRB4] | 1.75 ± 0.085 | 1.9 ± 0.16 | 1.96 ± 0.24 | 2.03 ± 0.16 |
| VDNIVNKYQYSLKQYAG [SRP68] | 3.09 ± 0.084 | 3.08 ± 0.076 | 2.71 ± 0.068 | 2.99 ± 0.055 |
| FKQAKERVMKNKVEENL [RPT2] | 3.11 ± 0.11 | 3.27 ± 0.061 | 3 ± 0.14 | 3.29 ± 0.11 |
| ATIRETYEIICDQTKSV [RRP43] | 2.87 ± 0.06 | 3 ± 0.065 | 2.8 ± 0.063 | 2.98 ± 0.045 |
| VNDSVISAPSMEDEILS [BRN1] | 2.05 ± 0.1 | 2.29 ± 0.089 | 2.41 ± 0.11 | 2.86 ± 0.073 |
| DSTPEEVSCKLLETITY [YML103C/NUP188] | 2.47 ± 0.077 | 2.82 ± 0.086 | 2.47 ± 0.075 | 2.79 ± 0.092 |
| ITYGIIKVPTYIRKLIS [SRB8] | 1.32 ± 0.074 | 1.44 ± 0.091 | 1.42 ± 0.2 | 1.36 ± 0.085 |
